Measurements taken from PMC4875590, “LATE ELONGATED HYPOCOTYL regulates photoperiodic flowering via the circadian clock in Arabidopsis”.

B1: FT EE (dsDNA)
DNA 1: TAATTAAAATATCTGCAAA
DNA 2: TTTGCAGATATTTTAATTA
B2: FT CBS (dsDNA)
DNA 1: GCTTTAGATTTTTAATAG
DNA 2: CTATTAAAAATCTAAAGC

Molecular target: MBP-CCA1 (Arabidopsis thaliana, UniProt P92973 1-608)
Experiment: EMSA; 100 ng protein; 100 ng poly(dI-dC); EMSA: 10 mM Tris-HCl pH 7.6, 50 mM NaCl, 1 mM EDTA, 5 mM DTT, 5% glycerol, 100 ng poly(dI-dC), 30 min, room temperature; 6% native PAGE
Settings: protein: recombinant; tags: MBP (N-terminal, pMAL-c2X); label: 32P end label

Chain of MBP-CCA1 (P92973 whole entry): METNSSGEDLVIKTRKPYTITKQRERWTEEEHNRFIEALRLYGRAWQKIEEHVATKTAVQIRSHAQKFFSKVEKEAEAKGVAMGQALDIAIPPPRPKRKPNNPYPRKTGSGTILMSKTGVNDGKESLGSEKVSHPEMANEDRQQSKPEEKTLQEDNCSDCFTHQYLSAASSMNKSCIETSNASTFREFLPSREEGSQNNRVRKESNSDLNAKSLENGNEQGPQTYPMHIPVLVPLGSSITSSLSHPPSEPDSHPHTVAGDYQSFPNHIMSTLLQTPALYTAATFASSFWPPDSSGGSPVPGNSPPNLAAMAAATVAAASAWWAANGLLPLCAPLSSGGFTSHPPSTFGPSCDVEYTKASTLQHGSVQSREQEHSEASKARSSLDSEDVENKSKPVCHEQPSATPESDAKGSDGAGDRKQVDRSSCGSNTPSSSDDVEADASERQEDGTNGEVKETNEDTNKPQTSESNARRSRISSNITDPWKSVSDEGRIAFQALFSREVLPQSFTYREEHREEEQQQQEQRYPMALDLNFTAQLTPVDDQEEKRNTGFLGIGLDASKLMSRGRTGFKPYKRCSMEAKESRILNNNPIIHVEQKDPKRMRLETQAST

Binder | binding result
B1 | binds
B2 | binds
